Blank lines part the entries; values can stand above or below the binder they belong to.
Target: N-terminal domain of Saccharomyces cerevisiae Hsp82 (1–210) (Saccharomyces cerevisiae, UniProt P02829 1-210)
Assay: NMR titration

N-terminal domain of Saccharomyces cerevisiae Hsp82 (1–210), sequence (P02829 1-210): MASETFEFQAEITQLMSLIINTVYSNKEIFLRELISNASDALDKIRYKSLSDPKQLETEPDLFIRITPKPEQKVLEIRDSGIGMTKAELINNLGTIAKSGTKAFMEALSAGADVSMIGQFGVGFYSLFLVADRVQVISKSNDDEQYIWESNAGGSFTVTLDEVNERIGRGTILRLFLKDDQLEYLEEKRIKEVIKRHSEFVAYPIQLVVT

Kd: 27 ± 3 µM
B1: CS domain of S. cerevisiae Sgt1 (176–290) (domain or fragment)
chain: ETAPQESPKFKIDWYQSSTSVTISLFTVNLPESKEQVNIYISPNDRRTLSISYQVPKSGSEFQYNAKLSHEVDPKAVSLKIFPKKLEITLSKIDSTQWKKLEEDILTESSRLSDE

binding result: binds
B2: CS domain of Arabidopsis SGT1a (149–253), NMR sample (domain or fragment)
chain: TAKYRHEYYQKPEEVVVTVFAKGIPKQNVNIDFGEQILSVVIEVPGEDAYYLQPRLFGKIIPDKCKYEVLSTKIEICLAKADIITWASLEHGKGPAVLPKPNVSS
